Biological target: PB1 (influenza A/WSN/1933 polymerase subunit) (influenza A virus A/WSN/1933) (UniProt P03430)
Assay: cell-based or functional assay

Chain of PB1 (influenza A/WSN/1933 polymerase subunit) (influenza A virus A/WSN/1933) (P03430 whole entry): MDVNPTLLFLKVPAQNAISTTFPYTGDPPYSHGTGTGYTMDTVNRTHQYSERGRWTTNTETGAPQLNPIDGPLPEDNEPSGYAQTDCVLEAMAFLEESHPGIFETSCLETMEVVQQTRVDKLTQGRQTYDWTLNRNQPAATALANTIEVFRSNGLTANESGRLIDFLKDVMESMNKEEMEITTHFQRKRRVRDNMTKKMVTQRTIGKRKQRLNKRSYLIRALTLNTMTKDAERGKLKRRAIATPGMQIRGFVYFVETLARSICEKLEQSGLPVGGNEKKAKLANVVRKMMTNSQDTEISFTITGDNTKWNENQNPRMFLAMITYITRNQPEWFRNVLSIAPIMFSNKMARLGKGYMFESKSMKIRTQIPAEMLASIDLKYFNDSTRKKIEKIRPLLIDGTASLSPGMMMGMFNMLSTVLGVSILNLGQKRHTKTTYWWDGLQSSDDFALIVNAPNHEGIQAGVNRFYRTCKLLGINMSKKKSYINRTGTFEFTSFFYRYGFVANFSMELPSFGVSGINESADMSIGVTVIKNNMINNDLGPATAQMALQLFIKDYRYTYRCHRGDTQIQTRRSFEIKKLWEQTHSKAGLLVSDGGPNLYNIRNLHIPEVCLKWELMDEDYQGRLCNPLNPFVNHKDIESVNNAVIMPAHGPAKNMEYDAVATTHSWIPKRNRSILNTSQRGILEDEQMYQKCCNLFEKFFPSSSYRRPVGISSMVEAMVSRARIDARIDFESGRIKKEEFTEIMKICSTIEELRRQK

Substance	virus titers
PB2 195/2223 DPR	50%
PB2 416/2189 DPR (from UniProt P03427 1-131)	50%
